Assay results as given in patent US20230296605A1.

How the values were obtained:
[1] = biological target: PRRSV viral lysate (Porcine Reproductive and Respiratory Syndrome Virus); experiment: ELISA Test 1, coated lysate, antibody 1:4000, Group 2; PBS control 0.058/0.060
[2] = biological target: PRRSV viral lysate (Porcine Reproductive and Respiratory Syndrome Virus); experiment: ELISA Test 2, coated lysate, antibody 1:4000; PBS control 0.118/0.121
[3] = biological target: lysate of porcine circovirus type 2; experiment: ELISA Test 2, coated lysate, antibody 1:4000; PBS control 0.162/0.153
[4] = biological target: lysate of porcine coronavirus; experiment: ELISA Test 2, coated lysate, antibody 1:4000; PBS control 0.140/0.145
[5] = biological target: lysate of porcine pseudorabies virus; experiment: ELISA Test 1, coated lysate, antibody 1:4000, Group 2; PBS control 0.054/0.052
[6] = biological target: PRRSV viral lysate (Porcine Reproductive and Respiratory Syndrome Virus); experiment: ELISA Test 1, coated lysate, antibody 1:4000, Group 1; PBS control 0.073/0.072
[7] = biological target: PRRSV viral lysate (Porcine Reproductive and Respiratory Syndrome Virus); experiment: […], antibody immobilized; […]
[8] = biological target: lysate of porcine pseudorabies virus; experiment: ELISA Test 1, coated lysate, antibody 1:4000, Group 1; PBS control 0.080/0.089
[9] = biological target: PRRSV viral lysate (Porcine Reproductive and Respiratory Syndrome Virus); experiment: ELISA, coated lysate, 1 ug antibody

B1: anti-PRRSV antibody 477 (antibody, V domains shown)
VH: QVHVKQSGAELAKPGASVKMSCKASGYTFTNYWMHWVKQRPGQGLEWIGYINPSTGYTEYNQKFKDKATLTADKSSSTASMQLSSLTSEDSAVYYCGRSTAYGKYGEAWFAYWGQGTLVTVSA
VL: DIVMTQSPASLAVSLGQRATISCRTSESVDSFGNSFMHWYQQKPGQPPKLLIYLASNLESGVPARFSGSGSRTDFTLTIDPVEADDAATYYCQQNNEDPYTFGGGTKLEIKR
With B1 the OD450 [1] was 0.129 OD450, the OD450 [2] was 0.66 OD450 and the OD450 [3] was 0.303 OD450. The OD450 [4] was 0.375 OD450, the OD450 [5] was 0.08 OD450 and the OD450 [6] was 0.151 OD450. For the same binder, the electric signal, fold over the negative control [7] was 3 times, the OD450 [8] was 0.095 OD450 and the lowest concentration of PRRSV recognized [9] was less than 0.78 ng.
